In the supplement of paper PMC9233669:
Variants at the floor of the assay were thinned out.

Experiments:
[1] = system: biotinyl-Met-oxazolone; experiment: self-aminoacylation, catalytic enhancement (BMO) (fold over background); higher = more active; k-Seq, kA / k0A0; sequences stand for … in GGGAAUGGAUCCACAUCUACGAAUUC…UUCACUGCAGACUUGACGAAGCUG
Outline: (§1)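 Mutagenized RNA pools with a 21-nt variable region (0.43 μM) reacted with each biotinyl-aminoacyl-oxazolone at 2–1250 μM. Reactions ran in 50 μL HEPES/NaCl/KCl/MgCl2/CaCl2 buffer with 5% acetonitrile, pH 6.9–7.0, for 90 minutes at room temperature. Streptavidin-captured RNA was quantified by triplicate qPCR and Illumina sequencing, and per-sequence fraction reacted was fit to a pseudo-first-order model with 1000 bootstraps. Catalytic enhancement is median kA divided by the uncatalyzed rate, the low-activity peak of a bimodal Gaussian fit.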

[2] = system: biotinyl-Val-oxazolone; experiment: self-aminoacylation, catalytic enhancement (BVO) (fold over background); higher = more active; k-Seq, kA / k0A0; sequences stand for … in GGGAAUGGAUCCACAUCUACGAAUUC…UUCACUGCAGACUUGACGAAGCUG
Outline: as §1

[3] = system: biotinyl-Leu-oxazolone; experiment: self-aminoacylation, catalytic enhancement (BLO) (fold over background); higher = more active; k-Seq, kA / k0A0; sequences stand for … in GGGAAUGGAUCCACAUCUACGAAUUC…UUCACUGCAGACUUGACGAAGCUG
Outline: as §1

[4] = system: biotinyl-Phe-oxazolone; experiment: self-aminoacylation, catalytic enhancement (BFO) (fold over background); higher = more active; k-Seq, kA / k0A0; sequences stand for … in GGGAAUGGAUCCACAUCUACGAAUUC…UUCACUGCAGACUUGACGAAGCUG
Outline: as §1

[5] = system: biotinyl-Ile-oxazolone; experiment: self-aminoacylation, catalytic enhancement (BIO) (fold over background); higher = more active; k-Seq, kA / k0A0; sequences stand for … in GGGAAUGGAUCCACAUCUACGAAUUC…UUCACUGCAGACUUGACGAAGCUG
Outline: as §1

[6] = system: biotinyl-Trp-oxazolone; experiment: self-aminoacylation, catalytic enhancement (BWO) (fold over background); higher = more active; k-Seq, kA / k0A0; sequences stand for … in GGGAAUGGAUCCACAUCUACGAAUUC…UUCACUGCAGACUUGACGAAGCUG
Outline: as §1

Sequence	self-aminoacylation [1]	self-aminoacylation [2]	self-aminoacylation [3]	self-aminoacylation [4]	self-aminoacylation [5]	self-aminoacylation [6]
AUUACCCCGGUAAUCGAGUGA [Fam2.1 aminoacylation ribozyme variant]	5.18	2.85	4.59	26.7	2.73	5.41
AUUACCCCGGUCACCGAGUGA [Fam2.1 aminoacylation ribozyme variant]	12.7	4.77	13	95.8	5.59	12.3
AUUACCCCGGUCAUCGAGUAA [Fam2.1 aminoacylation ribozyme variant]	1.2	1.26	1.9	5.28	1.53	2.01
AUUACCCCGGUCAUCGAGUCA [Fam2.1 aminoacylation ribozyme variant]	0.928	0.988	1.06	1.3	1.24	0.734
AUUACCCCGGUCUUCGAGUGA [Fam2.1 aminoacylation ribozyme variant]	4.71	3.4	4.72	29.3	3.2	6.46
AUUACCCCGGUGAUCGAGUGA [Fam2.1 aminoacylation ribozyme variant]	3.73	2.23	3.33	21.5	2.23	4.35
AUUACCCCGGUUAUCGAGUGA [Fam2.1 aminoacylation ribozyme variant]	6.01	2.74	6.39	32.1	2.72	5.95
AUUACCCGGCUCAUCGAGUGA [Fam2.1 aminoacylation ribozyme variant]	1.72	1.72	1.71	0.746	1.79	1.61
AUUACCCGGGUCAACGAGUGA [Fam2.1 aminoacylation ribozyme variant]	9.41	4.94	9.62	63.5	5.11	9.96
AUUACCCGGGUCAUAGAGUGA [Fam2.1 aminoacylation ribozyme variant]	9.33	4.45	9.4	71.4	4.55	10.4
AUUACCCGGGUCAUCAAGUGA [Fam2.1 aminoacylation ribozyme variant]	2.59	2.08	2.35	5.43	1.77	2.93
AUUACCCGGGUCAUCGACUGA [Fam2.1 aminoacylation ribozyme variant]	0.768	0.837	0.675	0.62	0.845	0.755
AUUACCCGGGUCAUCGAGGGA [Fam2.1 aminoacylation ribozyme variant]	1.32	1.32	1.61	3.47	1.46	0.834
AUUACCCGGGUCAUCGAGUGC [Fam2.1 aminoacylation ribozyme variant]	1.21	1.39	1.72	5.14	1.46	1.13
AUUACCCGGGUCAUCGAGUGU [Fam2.1 aminoacylation ribozyme variant]	3.48	2.11	3.19	10.8	2.33	3.42
AUUACCCGGGUCAUCGCGUGA [Fam2.1 aminoacylation ribozyme variant]	25.4	15.6	28.3	178	12	27.8
AUUACCCGGGUGAUCGAGUGA [Fam2.1 aminoacylation ribozyme variant]	7.21	4.2	7.76	46.1	3.2	8.54
AUUACCCUAAUCAUCGAGUGA [Fam2.1 aminoacylation ribozyme variant]	6.83	3.39	6.87	19.8	3.28	7.8
AUUACCCUAGUCGUCGAGUGA [Fam2.1 aminoacylation ribozyme variant]	0.893	0.97	0.845	1.04	0.866	0.759
AUUACCCUAGUGAUCGAGUGA [Fam2.1 aminoacylation ribozyme variant]	3.31	1.86	2.72	7.82	1.76	3.1
AUUACCCUCGGCAUCGAGUGA [Fam2.1 aminoacylation ribozyme variant]	10.2	4.45	11.1	59.4	4.6	13.9
AUUACCCUCGUCAUAGAGUGA [Fam2.1 aminoacylation ribozyme variant]	4.53	2.72	4.19	11.5	2.43	4.65
AUUACCCUCGUCAUCAAGUGA [Fam2.1 aminoacylation ribozyme variant]	2.96	2.19	2.87	6.71	1.92	4.2
AUUACCCUCGUCAUCCAGUGA [Fam2.1 aminoacylation ribozyme variant]	1.51	1.29	1.94	1.18	1.44	1.02
AUUACCCUCGUCAUCGAGUGC [Fam2.1 aminoacylation ribozyme variant]	0.914	0.864	1.17	1.29	0.96	0.477
AUUACCCUCGUCAUCGAGUUA [Fam2.1 aminoacylation ribozyme variant]	0.915	0.943	0.983	0.569	0.965	0.486

Sequence	self-aminoacylation [1]	self-aminoacylation [2]	self-aminoacylation [3]	self-aminoacylation [4]	self-aminoacylation [5]	self-aminoacylation [6]
AUUACCCUCGUCAUUGAGUGA [Fam2.1 aminoacylation ribozyme variant]	4.09	2.55	3.99	11.2	2.22	5.16
AUUACCCUCUUCAUCGAGUGA [Fam2.1 aminoacylation ribozyme variant]	1.33	1.11	1.41	1.52	1.02	0.851
AUUACCCUGAUCAUCAAGUGA [Fam2.1 aminoacylation ribozyme variant]	2.3	1.77	2.77	3.86	1.57	3.1
AUUACCCUGAUCAUCGACUGA [Fam2.1 aminoacylation ribozyme variant]	0.78	0.876	0.777	1.16	0.928	0.666
AUUACCCUGAUCAUCGAGUCA [Fam2.1 aminoacylation ribozyme variant]	0.577	0.786	0.722	0.555	0.738	0.305
AUUACCCUGAUCAUCGUGUGA [Fam2.1 aminoacylation ribozyme variant]	5.72	2.67	5.65	27.5	2.37	5.88
AUUACCCUGCUCAUCGAGGGA [Fam2.1 aminoacylation ribozyme variant]	0.947	0.905	0.858	0.691	1.02	0.707
AUUACCCUGCUCAUCGAGUGA [Fam2.1 aminoacylation ribozyme variant]	1.99	1.52	1.87	2.7	1.34	2.33
AUUACCCUGCUCAUCGGGUGA [Fam2.1 aminoacylation ribozyme variant]	4.81	3.34	5.17	33.5	2.63	6
AUUACCCUGCUCAUGGAGUGA [Fam2.1 aminoacylation ribozyme variant]	9.54	4.47	10.1	63.7	4.53	12.3
AUUACCCUGGACAACGAGUGA [Fam2.1 aminoacylation ribozyme variant]	8.65	3.76	8.43	59.1	3.88	9.2
AUUACCCUGGACAGCGAGUGA [Fam2.1 aminoacylation ribozyme variant]	3.3	2.12	4.19	10.9	2.24	2.52
AUUACCCUGGACAUCGAAUGA [Fam2.1 aminoacylation ribozyme variant]	0.846	0.895	0.96	0.708	1.23	0.378
AUUACCCUGGACAUCGAGUGA [Fam2.1 aminoacylation ribozyme variant]	5.32	2.79	5.18	19.6	2.52	5.97
AUUACCCUGGACAUCGCGUGA [Fam2.1 aminoacylation ribozyme variant]	9.04	5.5	9.65	80	4.42	9.83
AUUACCCUGGACAUCGGGUGA [Fam2.1 aminoacylation ribozyme variant]	9.33	7.46	10.2	29.7	7.02	7.69
AUUACCCUGGACCUCGAGUGA [Fam2.1 aminoacylation ribozyme variant]	3.68	2.4	3.9	5.71	1.88	3.16
AUUACCCUGGAGAUCGAGUGA [Fam2.1 aminoacylation ribozyme variant]	6.7	3.79	7.42	28.9	3.59	8.06
AUUACCCUGGAUAUCGAGUGA [Fam2.1 aminoacylation ribozyme variant]	10.5	4.88	11.1	67.3	4.43	12.9
AUUACCCUGGCCAUCGAGGGA [Fam2.1 aminoacylation ribozyme variant]	1.01	2.96	1.47	0.483	1.9	1.31
AUUACCCUGGCCAUUGAGUGA [Fam2.1 aminoacylation ribozyme variant]	3.72	2.41	4.53	4.63	2.13	4.73
AUUACCCUGGGCAGCGAGUGA [Fam2.1 aminoacylation ribozyme variant]	9.21	5.64	8.78	34.6	5.87	9.57
AUUACCCUGGGCAUAGAGUGA [Fam2.1 aminoacylation ribozyme variant]	10.1	4.72	12.6	71.5	4.98	12.6
AUUACCCUGGGCAUCGAGAGA [Fam2.1 aminoacylation ribozyme variant]	0.914	0.74	0.749	0.489	0.802	0.642
AUUACCCUGGGCAUCGAGCGA [Fam2.1 aminoacylation ribozyme variant]	1.08	1.48	0.813	7.68	1.26	1.43
